Results from PMC10663505 (Nature Communications, 2023).

Biological target: the molecule itself
Test: native gel or EMSA

B1: phosphorylated TBK1 (Native-PAGE of Supplementary Fig. S8a) (enzyme, UniProt Q9WUN2 1-729, looked up)
chain: MQSTSNHLWLLSDILGQGATANVFRGRHKKTGDLYAVKVFNNISFLRPVDVQMREFEVLKKLNHKNIVKLFAIEEETTTRHKVLIMEFCPCGSLYTVLEEPSNAYGLPESEFLIVLRDVVGGMNHLRENGIVHRDIKPGNIMRVIGEDGQSVYKLTDFGAARELEDDEQFVSLYGTEEYLHPDMYERAVLRKDHQKKYGATVDLWSVGVTFYHAATGSLPFRPFEGPRRNKEVMYKIITGKPSGAISGVQKAENGPIDWSGDMPLSCSLSQGLQALLTPVLANILEADQEKCWGFDQFFAETSDVLHRMVIHVFSLQHMTAHKIYIHSYNTAAVFHELVYKQTKIVSSNQELIYEGRRLVLELGRLAQHFPKTTEENPIFVTSREQLNTVGLRYEKISLPKIHPRYDLDGDASMAKAVTGVVCYACRTASTLLLYQELMRKGVRWLVELVKDDYNETVHKKTEVVITLDFCIRNIEKTVKVYEKLMKVNLEAAELGEISDIHTKLLRLSSSQGTIESSLQDISSRLSPGGLLADTWAHQEGTHPRDRNVEKLQVLLNCITEIYYQFKKDKAERRLAYNEEQIHKFDKQKLYYHATKAMSHFSEECVRKYEAFKDKSEEWMRKMLHLRKQLLSLTNQCFDIEEEVSKYQDYTNELQETLPQKMLAASGGVKHAMAPIYPSSNTLVEMTLGMKKLKEEMEGVVKELAENNHILERFGSLTMDGGLRNVDCL
modifications: phosphorylated (detected with the anti-phosphorylated TBK1 antibody)
notes: probably endogenous mouse TBK1
stoichiometry N: 2
